Data reported in patent US7291601B1, “Arginine-rich anti-vascular endothelial growth factor peptides that inhibit growth and metastasis of human tumor cells by blocking angiogenesis” (Korea Greencross Corp., priority 1999, dated 2007).
Where “and” joins values, the source holds several entries; their conditions need not be identical. Identical values can stand only once. Entries after “also recorded” stand apart in the source; their conditions may differ. Like-named read-outs stand apart in the source and are kept apart here. One block for each molecule: values may come before it.

Experiments:
[1] = tested on: HM7 (human colon carcinoma cell line); assay: Liver metastasis of HM7 cells transplanted into the spleen of nude mice; format: in vivo
Text: In order to conduct an experiment concerning the metastasis of cancer cells to the liver, cancerous cells were transplanted into the spleen. In this regard, after being anesthetized with diethyl ether, 4-week-old male mice (athymic nude mice, BALB/c/nu/nu, Charles River, Japan) underwent flank incision. […] Four weeks after the injection, the liver was excised from each mouse and measured for weight and the size and number of metastatic nodules formed. Each test group was composed of 6-7 mice. In a student's t-test, a p value less than 0.05 was regarded as being statistically significant. In the test using tetrazolium dye (cell titer 96 Non-radioactive Proliferation Assay Kit, Promega), each peptide was evaluated to have no influence on the growth of the cancer cells (5×10^3 cells/well), so that the possibility that the toxicity of the peptide themselves might inhibit the growth and metastasis of cancer cells could be excluded.

[2] = tested on: HM7 (human colon carcinoma cell line); assay: Subcutaneous HM7 tumor growth in athymic nude mice; format: in vivo; conditions: after 15 days of subcutaneous injection
Procedure: From the next day, a solution of each peptide in PBS (0.5 μg/100 μl/day) was subcutaneously injected to the mice for 15 days. Sizes of the tumors thus formed were periodically measured while tumor volumes were calculated according to the following formula: Tumor Size=0.5×(Diameter)^2×length

rabbit corneal domes = assay: Rabbit corneal dome angiogenesis induced by VEGF; format: in vivo; conditions: VEGF 10 ng with 1 μg peptide, 16 days after operation
Procedure: To confirm the test results obtained from egg CAM, an experiment was performed using rabbit corneal domes for in vivo angiogenesis testing. New Zealand male rabbits weighing 3 kg (SLC, Japan) were subjected to intramuscular ketamine anesthesia (44 mg/kg), followed by dissecting the corneal domes to a length of 3 mm by use of an operating knife (Bard-Parker—#11). […] 16 days after the operation, angiogenesis was obviously observed and photographs were taken of blood vessels newly formed in the corneal dome (Nikon, FS-2, Japan).

[3] = target: VEGF receptors present on the surface of HUVEC; assay: Binding of 125I-labeled VEGF165 to HUVEC, Scatchard analysis; parameters: species or system human
Procedure: First, HUVEC (human umbilical vein endothelial cells) (Clonetics) were placed on gelatin-coated 100 mm dishes (Falcon) containing a vascular endothelial cell culture medium (Medium 199+20% BCS, 5 μg/ml of heparin, 6 μg/ml of endothelial cell growth supplement, 5 ng/ml of basic fibroblast growth factor) and cultured at 37° C. in a CO2 incubator for animal cell culture. After a certain period of time, the cells were treated with trypsin/EDTA. After centrifugation, the cells harvested were suspended in a fresh, vascular endothelial cells culture medium and aliquoted at a density of 5×10^4 cell/well to a 24 well plate (Costar Co.). […] Thereafter, to quantitatively determine the amount of the labeled VEGF which bound to receptors present on the surface of the vascular endothelial cells, the cells were treated with 0.5 ml of a lysis solution (20 mM Tris-HCl, pH 7.4/1% TritonX-100) for 20 min, followed by measuring the resulting lysate for radioactivity with the aid of a γ-counter. As for the non-specific binding, it was determined from a cell group cultured in the presence of a mixture of the labeled VEGF and non-labeled VEGF in a molar ratio of 1:100. […]
The measurement results are shown in FIGS. 1a and 1b in which radioactivity is plotted versus time and concentration, respectively.

[4] = target: VEGF receptors present on the surface of HUVEC (human umbilical vein endothelial cells) (human); assay: Scatchard analysis of 125I-VEGF165 binding to HUVEC; the kind of receptor at about 2,000 per cell
[5] = tested on: egg CAM (chorioallantoic membranes); assay: Egg CAM assay, angiogenesis induced by VEGF; format: in vivo
Procedure: Fertilized eggs (Pulmuwon, Korea) were incubated at 37° C. under a humidity of 90%. After three days of culturing, the eggs were deprived of about 2 ml of albumin. After four days, eggs were partially deprived of the sheath to make a window with a size of 2×2 cm.
After VEGF (10 ng/egg) was mixed with various amounts of peptides or other samples, 3 μl of each mixture was dropped onto ¼ fraction pieces of thermanox coverslips (Nunc) and dried. The pieces were placed on CAM of 9-day embryonic eggs.
Two days later, the samples were independently observed under anatomical microscopes by two different persons to determine whether new blood vessels are induced by the dropped samples or not. In this regard, the experiment was repeated at least three times using 10 or more eggs per sample and the results are given in Table 5, below.

VEGF = target: T1, VEGF (Homo sapiens, UniProt P15692); assay: Inhibition of 125I-labeled VEGF binding to its receptors on HUVEC; conditions: 10 μM peptide (FIG. 6)
T1 sequence (P15692 27-191 isoform P15692-4): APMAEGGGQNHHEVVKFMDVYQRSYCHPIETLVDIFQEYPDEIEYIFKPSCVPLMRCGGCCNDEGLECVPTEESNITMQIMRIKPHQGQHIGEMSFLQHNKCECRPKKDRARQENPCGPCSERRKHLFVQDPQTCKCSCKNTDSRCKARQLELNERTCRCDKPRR
Procedure: Then, the cells were transferred to a medium (Medium 199/25 mM HEPES, pH 7.4/0.1% bovine serum albumin) containing 0.2 ng of ^125I-labeled VEGF and various concentrations of peptides or combinatorial peptide libraries and reacted at 4° C. for 3 hours. The cells were washed twice with the same medium and once with PBS containing 0.1% albumin to remove the labeled VEGF which still remained uncombined. Thereafter, to quantify the labeled VEGF which bound to receptors present on the surface of the vascular endothelial cells, the cells were treated with 0.5 ml of a lysis solution (20 mM Tris-HCl, pH 7.4/1% TritonX-100) for 20 min, followed by measuring the resulting lysate for radioactivity with the aid of a γ-counter.
The sequence of each peptide was indirectly decided through the analysis of amino acid compositions and its concentration was determined, after which 12 peptides were assayed for antagonism toward VEGF binding at various concentrations (1, 4, 10, and 20 μM/sequence).

[6] = tested on: HT1080 (human fibrosarcoma); assay: Egg CAM assay, angiogenesis induced by VEGF-secreting cancer cells; format: in vivo; conditions: egg CAM, 10^5 HT1080 cells/egg with 0.1 μg peptide; for Angiogenic activity(%): (standard deviation)
Procedure: An experiment using egg CAM was carried out to confirm the inhibitory activity of the screened peptides against the angiogenesis induced by cancer cells, which secrete VEGF. Fertilized eggs were deprived of albumin and windows were formed on the eggs as in above. 10^5 cells of HT1080 (human fibrosarcoma) were mixed with 7.5 μg of Type I collagen (rat tail, Beckton Dickinson, USA) within a volume of 5 μl and dropped onto ¼ fraction pieces of Thermanox coverslips to give collagen sponges. After being covered with the collagen sponges, 10-day embryonic egg CAM was incubated at 37° C. for 3 days. Blood vessels induced by the cancer cells were observed and photographed as in above (see Table 6 and FIG. 12).

[7] = target: T2, ^125I-labeled VEGF165, P15692; assay: inhibition of 125I-VEGF binding to its receptors on HUVEC, gamma counting
T2 chain: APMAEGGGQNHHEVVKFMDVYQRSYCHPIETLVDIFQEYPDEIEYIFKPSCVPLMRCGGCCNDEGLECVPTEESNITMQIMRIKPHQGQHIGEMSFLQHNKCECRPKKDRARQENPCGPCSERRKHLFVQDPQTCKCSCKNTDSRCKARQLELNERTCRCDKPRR

[8] = target: T2, ^125I-labeled VEGF165, P15692; assay: 125I-VEGF on plate-fixed peptide, competition; KD computed from the IC50
[9] = target: T3, VEGF (R&D systems), P15692; assay: cell-based or functional assay
T3 chain: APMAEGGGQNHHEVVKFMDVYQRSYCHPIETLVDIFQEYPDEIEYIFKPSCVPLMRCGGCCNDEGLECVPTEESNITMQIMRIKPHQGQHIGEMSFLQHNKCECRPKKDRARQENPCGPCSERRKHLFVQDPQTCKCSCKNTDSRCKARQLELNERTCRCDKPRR

[10] = target: T4, VEGF secreted from HT1080 human fibrosarcoma cells (human), P15692; assay: cell-based or functional assay
T4 chain: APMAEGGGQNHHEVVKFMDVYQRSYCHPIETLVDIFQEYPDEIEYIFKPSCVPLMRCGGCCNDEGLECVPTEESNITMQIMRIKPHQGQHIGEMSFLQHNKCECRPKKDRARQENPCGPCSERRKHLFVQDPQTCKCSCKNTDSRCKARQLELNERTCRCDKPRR

[11] = VEGF 10 ng/egg alone or with 1 μg sample
[12] = VEGF 10 ng/egg alone or with 1 μg sample, (standard deviation)

Kd [4]: 3 pM
Molecule: ^125I-labeled VEGF165 (from UniProt P15692 27-191) (ligand)

inhibition between labeled VEGF and its receptors (VEGF): no inhibition was observed
Molecule: KKKKKK: control peptide consisting of only lysine [reference compound]
metastasis, % of the control group to which only PBS was injected ([1]; weak inhibitory activity, measure not specified): about 80% | Angiogenic activity eggs/total eggs [5, 11]: 8/25 | Angiogenic activity eggs/total eggs [6]: 14/22 | Angiogenic activity(%) [6]: 59.0(1.4) % | Angiogenic activity(%) ([6]; listed as control peptide): 59%

IC50 [7]: 6.5 µM
Molecule: RKKRRR (modifications not checked) [Table 4 peptide 7 (RKKRRR)]

Kd [8]: 22 µM | Angiogenic activity(%), egg CAM, VEGF 10 ng + peptide 1 µg (VEGF alone 33.6, water 10.8) [9]: 15.6% | Angiogenic activity(%), egg CAM, HT1080 cancer cells + peptide 0.1 µg (cancer cell alone 76.0, no treatment 18.5) [10]: 41% | IC50 [7]: 3.8 µM
Molecule: H-RRRRRR-NH2 [peptide of sequence 3 (SEQ ID NO: 3) (NH2-Arg-Arg-Arg-Arg-Arg-Arg-CONH2)]

Kd [8]: 2 µM | Angiogenic activity(%), egg CAM, VEGF 10 ng + peptide 1 µg (VEGF alone 33.6, water 10.8) [9]: 15.6% | Angiogenic activity(%), egg CAM, HT1080 cancer cells + peptide 0.1 µg (cancer cell alone 76.0, no treatment 18.5) [10]: 43% | IC50 [7]: 3.4 µM
Molecule: H-RKKRKR-NH2 [peptide of sequence 2 (SEQ ID NO: 2) (NH2-Arg-Lys-Lys-Arg-Lys-Arg-CONH2)]

The remaining lines, values behind:

Molecule: EEFDDA: control peptide of an amino acid sequence EEFDDA [reference compound]
metastasis of cancer cells versus tumor injected alone ([1]; mouse, in vivo): No difference in metastasis | effect on tumor size / growth of human colon carcinoma cells in mice [2]: no effects | VEGF-induced angiogenesis in the rabbit corneal dome (rabbit corneal domes): had no influence on the VEGF-induced angiogenesis; also recorded: obvious angiogenesis

Molecule: ^125I-labeled VEGF: radioactive iodine-labeled VEGF165 used as ligand
Kd ([3]; receptor density about 2,000 per cell, read-out: dissociation constant (KD), first kind of receptor): 0.003 nM | Kd ([3]; receptor density about 6,000 per cell, read-out: dissociation constant (KD), other kind of receptor): 0.05 nM

Molecule: protamine [reference compound]
Angiogenic activity eggs/total eggs [5, 11]: 5/26 | Angiogenic activity(%) [5, 12]: 18.8(4.1) % and 18.4(4.1) % | Angiogenic activity(%) ([5]; VEGF with protamine 50 μg/egg as stated in text): about 18.8%

Molecule: VEGF
Angiogenic activity eggs/total eggs [5, 11]: 9/27 | Angiogenic activity(%) [5, 12]: 33.6% and 33.6(3.8) %

Molecule: H-RRKRRR-NH2 [peptide of sequence 1 (SEQ ID NO: 1) (NH2-Arg-Arg-Lys-Arg-Arg-Arg-CONH2)]
Kd [8]: 5 µM | Angiogenic activity(%), egg CAM, VEGF 10 ng + peptide 1 µg (VEGF alone 33.6, water 10.8) [9]: 15.6% | Angiogenic activity(%), egg CAM, HT1080 cancer cells + peptide 0.1 µg (cancer cell alone 76.0, no treatment 18.5) [10]: 36% | IC50 [7]: 2 µM

Molecule: RRKRKR (modifications not checked) [Table 4 peptide 2 (RRKRKR)]
IC50 [7]: 6 µM

Molecule: RKRRRR (modifications not checked) [Table 4 peptide 10 (RKRRRR)]
IC50 [7]: 7.8 µM

Molecule: RKRRKR (modifications not checked) [Table 4 peptide 4 (RKRRKR)]
IC50 [7]: 8.5 µM
